{"source": "the nanobody polyreactivity screen of Harvey et al. (2022)", "data": [{"assay": "yeast display, Sf9 membrane polyspecificity reagent, FACS + sequencing; frameworks hold sequencing errors", "outline": "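After 36–48 hours of galactose induction, yeast (Saccharomyces cerevisiae BJ5465) displaying a synthetic nanobody library were stained at 4 °C for 1 hour with 10% biotinylated, detergent-solubilized Sf9 membrane reagent. Streptavidin microbeads enriched the stained cells before FACS sorting into low and high (top ~1%) gates on anti-HA and streptavidin fluorescence. Each clone's polyreactivity label reflects its gate of origin.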", "values": [{"sequence": "QVQLVESGGGLVQAGGSLRLSCAASFRYNDMGWYRQAPGKERELDAAISSGASTSYPDSVKGRFTISRDNAKNTVYLQMNSLKPEDSAVSYCAAETYELYGLNEYDYWGQGTQVTVSS", "polyreactivity (PSR sort gate)": "low polyreactivity"}, {"sequence": "QVQLVESGGGLVQAGGSLRLSCAASGAILRRYAMGWYRQAPGKERELVAAISYSGGNTYYADSVKGRFTISRDNAKNTVYLQMNSLKPEDTAVYYCAARYYGTYRGFYYWGQGTQVTVSS", "polyreactivity (PSR sort gate)": "high polyreactivity"}, {"sequence": "QVQLVESGGGLVQAGGSLRLSCAASGFAFSYYAMGWYRQATGKEREFVASIDWSGGSTYYADSVKGRFTISRDNAKNTVYLQLNSLKPEDTAVYYCAAELDYFPGYDYWGQGTQVTVSS", "polyreactivity (PSR sort gate)": "low polyreactivity"}, {"sequence": "QVQLVESGGGLVQAGGSLRLSCAASGFAVSYYAMAWYRQAPGKEREFVASSDWSGGSTYYADSVKGRFTISRDNAKNTVYLQMNSLKPEYTAVYYCAAELVYFPGYDYWGQGTQVTVSS", "polyreactivity (PSR sort gate)": "low polyreactivity"}, {"sequence": "QVQLVESGGGLVQAGGSLRLSCAASGFIFAAYAMGWYRQAPGKERELVAAISGSGGRTYYADSVKGRFTISRDNAKNTVYLQMNSLKPEDTAVYYCATPPGYPPGSIKWSRFGYWGQGTQVTVSS", "polyreactivity (PSR sort gate)": "high polyreactivity"}, {"sequence": "QVQLVESGGGLVQAGGSLRLSCAASGFIFADNAMGWYRQAPGKERELVAGITSGGITNYADSVKGRFTISRDNAKNTVYLQMNSLKPEDTAVYYCAVYYRRWFSRYDYWGQGTQVTVSS", "polyreactivity (PSR sort gate)": "low polyreactivity"}, {"sequence": "QVQLVESGGGLVQAGGSLRLSCAASGFIFADNTMGWYRQAPGKERELVAAISRRGGSTYYADSVKGRFTISRDNAKNTVYLQMNSLKPEDTAVYYCAARPFVKHDYWGQGTQVTVSS", "polyreactivity (PSR sort gate)": "high polyreactivity"}, {"sequence": "QVQLVESGGGLVQAGGSLRLSCAASGFIFAEYAMGWYRQAPGKDRELVAAITSGGSTSYADSVKGRFTISRDNAKNTVYLQMNSLKPEDTAVYYCAATWYYHYNDWKHWYEYGYWGQGTQVTVSS", "polyreactivity (PSR sort gate)": "low polyreactivity"}, {"sequence": "QVQLVESGGGLVQAGGSLRLSCAASGFIFAEYAMGWYRQAPGKERELVAAITSGGSTSYADSVKGRFTISRDNAKNTVYLQMNSLIPEDTAVYYCAATWYYHYNDWKHWYEYGYWGQGTQVTVSS", "polyreactivity (PSR sort gate)": "low polyreactivity"}, {"sequence": "QVQLVESGGGLVQAGGSLRLSCAASGFIFAFNAMGWYRQAPGKERELVAAISRSGGSTYADSVKGRFTISRDNEKNTVYLQMNSLKPEDTAVYFCAAYSGVGYLWFDYWGHGTQVTVSS", "polyreactivity (PSR sort gate)": "low polyreactivity"}, {"sequence": "QVQLVESGGGLVQAGGSLRLSCAASGFIFAGNAMGWYRQAPGKEREWVAAISRRGVRTYYADSVKGRFTISRDNAKNTVYLQMNSLKPEDTAVYYCAADRPASLISSDYWGQGTQVTVSS", "polyreactivity (PSR sort gate)": "high polyreactivity"}, {"sequence": "QVQLVESGGGLVQAGGSLRLSCAASGFIFAGYAMGWYRQAPGKERELVAAISSRGGSTYYADSVKGRFTISRDNAKNTVYLQMNSLKPEDTAVYYCNKYYYGFTPDGYKKMDYWGQGTQVTVSS", "polyreactivity (PSR sort gate)": "low polyreactivity"}, {"sequence": "QVQLVESGGGLVQAGGSLRLSCAASGFIFAINAMGWYRQAPGKEREFVAAISSDGASTYYADSVKGRFTISRDNAKNTVYFQMNSLKPEDTAVYYCNAVPYEWTYPYEYYYWGQGTQVTVSS", "polyreactivity (PSR sort gate)": "low polyreactivity"}, {"sequence": "QVQLVESGGGLVQAGGSLRLSCAASGFIFAKYAMGWYRQAPGKEMELVAAITSGGSTNYADSVKGRFTISRDNAKNTVYLQMNSLKPDDTAVYYCNRGFDWWYRYRHYDYWGQGTQVTVSS", "polyreactivity (PSR sort gate)": "low polyreactivity"}, {"sequence": "QVQLVESGGGLVQAGGSLRLSCAASGFIFAKYAMGWYRQAPGKERALGAAITSGGSTNYADSVKGRFTISRDNAKNTLYLQMNSLNPEDTAVYSCNRGFDWCYRYRHYDYWGQGTQVTVSS", "polyreactivity (PSR sort gate)": "low polyreactivity"}, {"sequence": "QVQLVESGGGLVQAGGSLRLSCAASGFIFANYVMGWYRQAPGKERELVAAITYSGNTYYADSVKGRFTISRDNAKNTVYLQMNSLKPVDTAVYYCNADYVEGGLPGYDFDYWGQGTQVTVSS", "polyreactivity (PSR sort gate)": "low polyreactivity"}, {"sequence": "QVQLVESGGGLVQAGGSLRLSCAASGFIFAPNAMGWYRQAPGKERELVAAISQSGASTFYADSVKGRFTISRDNAKNTVYFQMNSLKPEDTAVYYCAAPPYYSYDYWGQGTQVTVSS", "polyreactivity (PSR sort gate)": "low polyreactivity"}, {"sequence": "QVQLVESGGGLVQAGGSLRLSCAASGFIFARNAMGRYRQDTGKERELVAVISTRGRTYYADSVKGRFTISRDNSKNTVYLQMNSLKPEDTAVYYCNADKVIGYDYWGQCTQVTVSS", "polyreactivity (PSR sort gate)": "high polyreactivity"}, {"sequence": "QVQLVESGGGLVQAGGSLRLSCAASGFIFARYAMGWYRQAPGKEREFVAAITWSGGTTYYADSVKGRFTISRDYAKNTVYFQMNSLKPEDTAVYYCAARWGKTLWQYNYWGQGTQVTVSS", "polyreactivity (PSR sort gate)": "high polyreactivity"}, {"sequence": "QVQLVESGGGLVQAGGSLRLSCAASGFIFASNVMGWYRQAPGKERELVAAISWSGTRTYYADSVKGRFTISRDNAKNTVYLQMNSLKPEDTAVYYCAARRLYAGHQYDYWGQGTQVTVSS", "polyreactivity (PSR sort gate)": "high polyreactivity"}, {"sequence": "QVQLVESGGGLVQAGGSLRLSCAASGFIFASYAMGWYRQAPGKERELVAAISSRGGRTYYADSVKGRFTISRDNAKNTVSLQMNSLKPEDTAVYYCAAENYWLAWYKGYDYCGQGTQVTVSS", "polyreactivity (PSR sort gate)": "high polyreactivity"}, {"sequence": "QVQLVESGGGLVQAGGSLRLSCAASGFIFATNAMGWYRQAPGKERELVAAISRSGGSTYYADSVKGRFTISRDNAKNTVYLQMYSLKPEDTAVYYCATPRYRYYTIYDYGYWGQGTQVNVSS", "polyreactivity (PSR sort gate)": "high polyreactivity"}, {"sequence": "QVQLVESGGGLVQAGGSLRLSCAASGFIFATNTMGWYRQAPGKERELVAASSTYYADSVKGRFTISRDNAKNTVYLQMNSLKPEDTAVYYCNADRDSYIGFVVWAGEYWGQGSQVTVSS", "polyreactivity (PSR sort gate)": "low polyreactivity"}, {"sequence": "QVQLVESGGGLVQAGGSLRLSCAASGFIFAVYAMGWYRQAPGKERELVARISSGRGSTYYADSVKGRFTISRDNAKNTVYFQMNSLKPEDTAVYYCAADPVHRFPGTGGYWGQGTQVTVSS", "polyreactivity (PSR sort gate)": "low polyreactivity"}, {"sequence": "QVQLVESGGGLVQAGGSLRLSCAASGFIFAWNDMGWYRQAPGKERELVAAISSGTSTNYADSVKGRFTISRDNAKNTVYLQMNSLKPEDTGVYYCNVDSPLQPYRYYYWGQGSQVTVSS", "polyreactivity (PSR sort gate)": "low polyreactivity"}, {"sequence": "QVQLVESGGGLVQAGGSLRLSCAASGFIFAWYAMGWYRQAPGKERELVADITSGGDTSYADSVKGRFTISLDNAKNTVYLQMNSLKPEDTAVYYCAAVWEPWNIRLVLTAVDYWGQGTQVTVSS", "polyreactivity (PSR sort gate)": "low polyreactivity"}, {"sequence": "QVQLVESGGGLVQAGGSLRLSCAASGFIFAYNAMGWYRQAPGKEREFVAAISRSGGSTRYADSVKGRFTISRDNAKNTVYLQMNSLKPEDTAVYYCAARSGSWGQGTQVTVSS", "polyreactivity (PSR sort gate)": "high polyreactivity"}, {"sequence": "QVQLVESGGGLVQAGGSLRLSCAASGFIFAYNAMGWYRQAPGKERELVAAISRSGGSTRYADSVKGRFTISRDNAKNTVYLQMNSLKPEDTAVYYCAARSGSWGQGTQVTVSS", "polyreactivity (PSR sort gate)": "high polyreactivity"}, {"sequence": "QVQLVESGGGLVQAGGSLRLSCAASGFIFAYNAMGWYRQAPGKERELVAAISWSGGSTYYADSVKGRFTISRDNAKNTVYLQMNSLKPEDTAVYYCNAFSYYGARYDYWGLGTQVTVSS", "polyreactivity (PSR sort gate)": "high polyreactivity"}, {"sequence": "QVQLVESGGGLVQAGGSLRLSCAASGFIFAYNAMGWYRQAPGKERELVAGISRRGGSTYYADSVKGRFTISRDNAKNTVYLQMNSLKPEDTAVYYCAADSFTYWSWLHGYWGQGTQVTVSS", "polyreactivity (PSR sort gate)": "high polyreactivity"}, {"sequence": "QVQLVESGGGLVQAGGSLRLSCAASGFIFAYNAMGWYRQAPGKERELVASIRTRAGSTYYADSVKGRFTISRDNAKNTDYLQMNSLKPADTAVYYSAARPFPRRYDYWGQGTQVTVSS", "polyreactivity (PSR sort gate)": "low polyreactivity"}, {"sequence": "QVQLVESGGGLVQAGGSLRLSCAASGFIFAYYAMGWYRQAPGKERELVAAISQIGGRTYYADSVKGRFTISRDNAKNTVYLQMNSLKPEDTAVYYCAKAGAYKYGYWGQGTQVTVSS", "polyreactivity (PSR sort gate)": "high polyreactivity"}]}]}
